One substance from PMC2193676 can be followed below.

For orientation: Kd means the concentration at which binding is half-saturated. A high value points to a looser complex.

In this assay the target is biotinylated K^d-SYIPSAEK(ABA)I (H-2K^d heavy chain, human β2-microglobulin, photoreactive PbCS(ABA) peptide) (not stated | human | Plasmodium berghei). Briefly: SPR.

As to “soluble CD8αβ (extracellular portions of murine CD8α and CD8β fused to leucine zipper units) (complex)”, the Kd stood at 99 µM.
